Measurements from paper PMC5446653.

Target: human coxsackievirus and adenovirus receptor on CHO-CAR cells (human) (UniProt P78310)

“soluble recombinant HAdV-5 fiber knob Y477A (from UniProt P11818 1-581) (domain or fragment)” gave an inhibition of HAdV-5-EGFP transduction of CHO-CAR cells (EGFP-positive cells by flow cytometry) after preincubation with FK*, 0.0001 to 100 μg/10^5 cells, 1 h at 4°C (μg/10^5 cells) of over 100.
